Source: paper PMC10646045, “Multiplexed detection of viral antigen and RNA using nanopore sensing and encoded molecular probes”

B1: SBA (ssDNA)
DNA: CACGCATAACGTCTTGCGGGGCGGCGGGTTGAGAGGATGTCGGGTGGTTATGCGTG
B2: NBA (ssDNA)
DNA: GCTGGATGTCGCTTACGACAATATTCCTTAGGGGCACCGCTACATTGACACATCCAGC

Assays:
[1] = target: SARS-CoV-2 spike protein S1 region (SARS-CoV-2, UniProt P0DTC2 13-685); experiment: SPR; details: protein: commercial
[2] = target: SARS-CoV-2 nucleocapsid protein (SARS-CoV-2, UniProt P0DTC9 1-419); experiment: SPR; details: protein: commercial

Row | Binder | Kd [1] [nM] | Kd [2] [nM]
1 | B1 | 9.86 | –
2 | B2 | – | 0.73
